# Data from IntAct's records for PubMed 30388101.
# B1: Paired immunoglobulin-like type 2 receptor alpha (Homo sapiens), Q9UKJ1 (parent)
# chain: MGRPLLLPLLPLLLPPAFLQPSGSTGSGPSYLYGVTQPKHLSASMGGSVEIPFSFYYPWELATAPDVRISWRRGHFHRQSFYSTRPPSIHKDYVNRLFLNWTEGQKSGFLRISNLQKQDQSVYFCRVELDTRSSGRQQWQSIEGTKLSITQAVTTTTQRPSSMTTTWRLSSTTTTTGLRVTQGKRRSDSWHISLETAVGVAVAVTVLGIMILGLICLLRWRRRKGQQRTKATTPAREPFQNTEEPYENIRNEGQNTDPKLNPKDDGIVYASLALSSSTSPRAPPSHRPLKSPQNETLYSVLKA
# partner: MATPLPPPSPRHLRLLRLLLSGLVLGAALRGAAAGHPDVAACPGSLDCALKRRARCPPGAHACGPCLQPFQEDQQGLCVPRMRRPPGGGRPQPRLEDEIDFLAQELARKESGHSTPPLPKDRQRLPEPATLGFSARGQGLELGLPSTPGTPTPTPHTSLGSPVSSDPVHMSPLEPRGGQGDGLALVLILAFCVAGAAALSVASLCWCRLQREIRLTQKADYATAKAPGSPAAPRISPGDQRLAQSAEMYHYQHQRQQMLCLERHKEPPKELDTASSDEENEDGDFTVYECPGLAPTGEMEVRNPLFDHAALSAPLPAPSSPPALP
# B2: Paired immunoglobulin-like type 2 receptor alpha (Homo sapiens), Q9UKJ1 (parent)
# chain: B1 chain
# partner: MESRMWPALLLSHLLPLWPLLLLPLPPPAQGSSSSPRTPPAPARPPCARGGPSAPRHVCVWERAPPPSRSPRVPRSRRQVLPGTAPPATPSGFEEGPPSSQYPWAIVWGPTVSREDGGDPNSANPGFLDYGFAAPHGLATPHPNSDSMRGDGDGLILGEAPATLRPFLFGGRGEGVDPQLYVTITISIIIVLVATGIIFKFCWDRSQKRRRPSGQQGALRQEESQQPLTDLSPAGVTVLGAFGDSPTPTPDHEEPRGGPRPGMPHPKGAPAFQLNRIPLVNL
# B3: Paired immunoglobulin-like type 2 receptor alpha (Homo sapiens), Q9UKJ1 (parent)
# chain: B1 chain
# Variants of: B1
# Settings: with npdc1_human NPDC1, Q9NQX5
row,Variant,effect of a mutation on the interaction
1,S80G,increasing interaction strength
2,R78G,increasing interaction strength
3,Q140A,disrupting interaction strength
4,F76A,disrupting interaction strength
5,S141A,increasing interaction strength
6,R72A,disrupting interaction strength

# Variants of: B1
# Settings: with npdc1_human NPDC1, Q9NQX5
# Remark: another data set of the same source
row,Variant,effect of a mutation on the interaction
1,Q140A,decreasing interaction strength

# Variants of: B2
# Settings: with pianp_human PIANP
row,Variant,effect of a mutation on the interaction
1,S80G,increasing interaction strength
2,R78G,increasing interaction strength
3,F76A,disrupting interaction strength
4,R72A,disrupting interaction strength

# Variants of: B3
# Settings: with co4a_human C4A
row,Variant,effect of a mutation on the interaction
1,S80G,increasing interaction strength
2,F76A,disrupting interaction strength
3,R78G,increasing interaction strength
